Entries after “also recorded” stand apart in the source; their conditions may differ. Peptide text beside a SMILES is read from it.
What was measured:
[1] = system: SK-MES-1, A-549, SKOV-3 and MCF-7 cells; assay: In vitro receptor binding of radiolabeled peptides on four cell lines; parameters: species or system human; settings: 40 nM radiolabeled peptide, 2 hr at 37 °C
Description: (§1) The in vitro receptor binding of the^ 99mTc-labeled peptide was evaluated using SK-MES-1 a human lung squamous cell carcinoma, SKOV-3 human ovarian carcinoma, and A-549 human lung adenocarcinoma epithelial and MCF-7 human breast cancer cell lines. All cell lines were kept at 37 °C in a 5% CO2 incubator and were maintained in Dulbecco’s DMEM-high glucose supplemented with 10% FBS. Cells were plated in 24-well plates at a density of 4×10^5 cells/well in 1 ml of complete medium and incubated for 24 hr to allow in cells to settle. Following a wash with cold serum-free media or PBS, 40 nM radiolabeled peptides in the full medium were given to the cells, which were then incubated at 37 °C for 2 hr. Finally, cells in culture plates were trypsinized and released, and radioactivity in the cells was measured. To determine specific versus nonspecific binding, SK-MES-1 cells were seeded into 12-well plates at a density of 5×10^5 cells/well and incubated with unlabeled peptides at a concentration 500-fold higher than the labeled peptide for 20 min at 37 °C, followed by the addition of the radiolabeled peptide to the wells. These cells were incubated for 2 hr at 37 °C in a humidified incubator.

SK-MES-1 cells [2] = assay: Specific binding (blocking with unlabeled peptide) on SK-MES-1 cells; parameters: species or system human; settings: listed as 99mTc-peptide 2
Description: as §1

SK-MES-1 cells [3] = assay: Saturation binding assay on SK-MES-1 cells; parameters: species or system human
Description: The affinities of (^99mTc) Tc-HYNIC-peptides were determined utilizing a saturation binding experiment with cultivated cells in vitro for determination of the dissociation constant as KD and the number of binding sites per cell (Bmax). SK-MES-1 cells were incubated for 2 hr at 37 °C with increasing concentrations of (^99mTc) Tc- HYNIC- peptides (0.1, 0.5, 1, 2.5, 5, 25, and 50 nM). One dish served as a blocking sample, and it was immersed in a blocking solution containing a 500-fold excess of the non-labeled peptide. For each concentration, three dishes were utilized. Following incubation, the media was withdrawn, and the cells were trypsinized and collected for Gamma counter activity measurement. Prism 5 software (Ver. 5.0) was used to examine the particular binding data using nonlinear regression.

[4] = Biodistribution in normal mice; assay type: in vivo; settings: normal female NMRI mice, i.v. 1 μg in 100 μl (18.5 MBq), mean±SD, n=4
Description: All animal investigations were approved by Mazandaran University of Medical Sciences Research and Ethical Committee in Sari, Iran. Twelve normal female NMRI mice (20–30 g) were randomly divided into three groups of four. 1 μg of (^99mTc) Tc –HYNIC–J18 peptide in 100 μl of buffer (18.5 MBq) was injected into the tail vein. All animals were sacrificed one, four, and twenty-four hours following radiolabeled peptide injection. Mice were euthanized with an appropriate dose of ketamine/xylazine (Sigma, USA) diluted with sterile water (1:3 v/v). Following deep anesthesia, blood was extracted by heart puncture with a 1-mL syringe washed with diluted heparin. Blood, liver, spleen, salivary gland, stomach, kidney, muscle, and bone samples were dissected and weighed, and radioactivity was measured. Except for the intestines, which were computed as a percentage of the injected dose per gram tissue (percent ID/g), the tissue uptake data was calculated as a percentage of the administered dose per total sample.

[5] = Biodistribution in SK-MES-1 xenografted nude mice; assay type: in vivo, female C57 nu/nu mice; settings: female, C57 nu/nu, mouse, in vivo, iv, total radioactivity, SK-MES-1 xenograft nude mice, n=4
Description: (§2) The tumor biodistribution and targeting properties of the radiolabeled peptides were carried out in female C57 nu/nu mice bearing SK-MES-1 (Pasture Institute, North Branch and Amol, Iran). The tumor was grafted by subcutaneous injection of SK-MES-1 cells at a concentration of 4×10^6 cells/mouse into the right front flank of the mice and left to grow over a period of 20 days. The mice were ready for biodistribution when tumor size reached 0.7–1 cm^3 in mean diameter, all mice received intravenous co-injections of (^99mTc) Tc-HYNIC-(Ser)3-J18 peptide 1 or (^99mTc )Tc-HYNIC-(Ser)3-J18 peptide 2 (1 μg in 100 μl buffer) after 1, 2, and 4 hr post-injection, respectively (n=4 mice per group). In order to measure the radiopeptides’ nonspecific uptake of the radiopeptides, one group of four animals was injected with 300 μg of non-labeled peptide in a 50 μl buffer. The mice in the blocking group were euthanized 2 hr after the injection. Mice organ and tissue samples were collected, and radioactivity uptake was calculated as a percentage of the administered dose per gram tissue (%ID/g).

SK-MES-1 tumors = assay: Biodistribution in SK-MES-1 xenografted nude mice; assay type: in vivo, female C57 nu/nu mice; settings: SK-MES-1 xenograft nude mice, mean ± SD, n=4
Description: as §2

A-549 cells = settings: previously reported, listed as 99mTc-HYNIC-(Ser)3-J18 (tricine/EDDA); cited from earlier work
Text: Table 1 Overview of affinity binding ^99mTc-HYNIC-(Ser)3-J18 on SK-MES-1 vs A-549 cell line | column: A-549 / Tricine; A-549 / tricine/EDDA

CC(C)C[C@H](NC(=O)[C@H](CO)NC(=O)[C@H](CCCNC(=N)N)NC(=O)[C@H](CO)NC(=O)[C@H](CO)NC(=O)[C@H](CO)NC(=O)c1ccc(NN)nc1)C(=O)N[C@@H](Cc1c[nH]c2ccccc12)C(=O)N[C@@H](CO)C(=O)N[C@@H](CC(=O)O)C(=O)N[C@@H](Cc1ccccc1)C(=O)N[C@@H](Cc1ccc(O)cc1)C(=O)N[C@@H](C)C(=O)N[C@@H](CO)C(=O)N[C@@H](C)C(=O)N[C@@H](CO)C(=O)N[C@@H](CCCNC(=N)N)C(=O)NCC(=O)N1CCC[C@H]1C(=O)O [Peptide 2, (^99mTc) Tc-HYNIC-(Ser)3-J18 with tricine/EDDA, metal not drawn] (HELM PEPTIDE1{[NNc1ccc(C(=O)[*:2])cn1].S.S.S.R.S.L.W.S.D.F.Y.A.S.A.S.R.G.P}$$$$V2.0; C-terminus assumed)
cellular affinity, in words [1]: strongest cellular affinity for the SK-MES-1 cell line | reduction of binding by pre-saturation with unlabeled J18 peptide (SK-MES-1 cells [2]; 500-fold unlabeled peptide 20 min at 37 °C, then radiolabeled peptide 2 hr at 37 °C): 7.5 fold | specific binding to SK-MES-1, in words (SK-MES-1 cells [2]): high specificity | Bmax (SK-MES-1 cells [3]; Figure 4, saturation binding, 2 hr at 37 °C, listed as 99mTc-(EDDA/tricine)-(Ser)3-HYNIC-J18): (1.9±0.3)·10^4 binding sites/cell | binding affinity for SK-MES-1, in words (SK-MES-1 cells [3]; listed as 99mTc-peptide 2): high binding affinity; also recorded: good receptor-binding affinity | Kd (SK-MES-1 cells [3]; saturation binding, 0.1-50 nM, 2 hr at 37 °C, blocking with 500-fold excess non-labeled peptide, three dishes per concentration, Prism 5 nonlinear regression, listed as 99mTc-HYNIC-(Ser)3-J18 (tricine/EDDA)): 3.64 ± 0.8 nM | Intestine uptake (with contents) ([4]; 4 hr): 3.63±1.80 percentage of injected dose per whole sample | Intestine uptake (with contents) ([4]; 24 hr): 0.59±0.29 percentage of injected dose per whole sample | tissue to tissue ratio at 2 h ([5]; 1 ug, 2 hr, read-out: Tumor/blood ratio): 2.96 | tissue uptake at 2 h ([5]; 2h-blocked (300 μg non-labeled peptide 0.5 hr before), i.v. 1 μg, mean ± SD, read-out: Tumor uptake): 0.43 ± 0.05 %ID/g | Intestine uptake (with contents) (SK-MES-1 tumors; 1 hr, i.v. 1 μg in 100 μl): 0.78±0.01 percentage of injected dose per whole sample | Intestine uptake (with contents) (SK-MES-1 tumors; 2h-blocked (300 μg non-labeled peptide 0.5 hr before), i.v. 1 μg): 0.23±0.09 percentage of injected dose per whole sample | Intestine uptake (with contents) (SK-MES-1 tumors; 2 hr, i.v. 1 μg in 100 μl): 0.53±0.11 percentage of injected dose per whole sample | Intestine uptake (with contents) (SK-MES-1 tumors; 4 hr, i.v. 1 μg in 100 μl): 0.03±0.01 percentage of injected dose per whole sample | Kd (A-549 cells): 4.4 ± 0.8 nM

From publication PMC8751750, “Effect of using different co-ligands during ^99mTc-labeling of J18 peptide on SK-MES-1 cell binding and tumor targeting” (Iranian Journal of Basic Medical Sciences, 2021)
